Screen value data for three variants are collected here from paper PMC4980433 (Molecular Cell, 2016).

B1: TNKS SAM domain (1,018-1,093), wild type [human] / itself (parent)
chain: ERKEGEVAGLDMNISQFLKSLGLEHLRDIFETEQITLDVLADMGHEELKEIGINAYGHRHKLIKGVERLLGGQQGT

Variants of B1 are the subject of the experiment. The experiment in a line: SEC-MALS. To be noted: with itself; 0.5 mM; n = 2. A general note: In gel filtration, larger molecules generally elute earlier.
Consider chain 1 V39W Y56A, for which the screen value came out at 9.3 kDa. In the case of chain 1 Y56A it was 10.4 kDa. The figure for chain 1 V39W is 10.6 kDa.
